In patent US20250313624A1:

Tests used:
[1] = target: control discoidal lipid bilayer-membrane scaffold protein complex without GPCR1 (empty complex); assay: Octet assay; biotinylated empty complex captured on streptavidin through the Bir-A tag of the membrane scaffold protein (FIG. 1B)
[2] = target: discoidal lipid bilayer-membrane scaffold protein complex including GPCR1 transmembrane protein (human); assay: Octet assay; biotinylated complex with GPCR1 captured on streptavidin through the Bir-A tag of the membrane scaffold protein (FIG. 1B)

## streptavidin tethered to plates (from UniProt P22629 37-163)
[1]
  Octet response: 0.69 nm
[2]
  Octet response: 3 nm
